In PMC7338525, “Insights into the structure and function of Est3 from the Hansenula polymorpha telomerase”:

Molecular target: T1, HpEst3 (Hansenula polymorpha, UniProt W1QJK4 1-175)
T1 sequence: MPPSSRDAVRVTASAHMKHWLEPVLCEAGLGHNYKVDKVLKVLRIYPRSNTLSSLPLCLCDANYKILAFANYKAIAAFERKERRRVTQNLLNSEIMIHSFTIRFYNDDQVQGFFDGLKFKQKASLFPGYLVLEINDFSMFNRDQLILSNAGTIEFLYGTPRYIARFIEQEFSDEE
Assay: NMR titration (15N-HpEst3); Est3:DNA up to 1:5; non-specific binding, signal broadening without shift changes; NMR: 100 mM KCl, 20 mM potassium phosphate pH 6.5, 0.02% NaN3, 3 mM DTT, 25 C; EMSA: 20 mM potassium phosphate pH 6.5, 100 mM KCl, 3 mM DTT, 8% native PAGE
Conditions: protein: recombinant

B1: ssDNA G4 (four telomeric repeats) (ssDNA)
DNA: GGGTGGCGGGGTGGCGGGGTGGCGGGGTGGCG
binding result: binds
